Measurements published in the Human Domainome abundance scans (Beltran et al. 2025).

B1: SWI/SNF-related matrix-associated actin-dependent regulator of chromatin subfamily B member 1, residues 181 to 248; numbered along this chain, Q12824 (parent)
chain: SQPEVLVPIRLDMEIDGQKLRDAFTWNMNEKLMTPEMFSEILCDDLDLNPLTFVPAIASAIRQQIESY

Variants of: B1
Assay: abundance fitness (aPCA) (normalised: wild type 0, dead -1); higher = more abundant; growth selection in yeast, the domain comes from the species named
Conditions: Homo sapiens

Abundance fitness: each site, then its substitutions
L32: T 0.134, W -0.113, F 0.09, D 0.181, Q 0.099, H 0.146, K 0.176, C -0.075, M 0.085, S 0.059, V 0.068, A 0.056, N 0.207, Y 0.061, G 0.061, E 0.207
L42: W -0.883, I -0.005, E -0.978, S -0.69, Y -0.071, P -0.33, T -0.854, V -0.111, N -0.549, A -0.721, D -0.869, K -0.106, F -0.128, H -0.636, G -0.909, M 0.117, R -0.211, C -0.846
M33: P -0.113, I -0.104, H -0.293, Y -0.421, K -0.325, G -0.797, L 0.01, R -0.418, T -0.279, W -0.488, A -0.563, Q -0.191, E -0.794, S -0.743, V -0.248, F -0.542
K31: S -0.063, R -0.113, W -0.533, H -0.169, A 0.031, T 0.084, F -0.397, Q -0.085, D 0.018, C -0.391, V -0.146
N27: S -0.582, C -0.923, M -0.988, W -0.909, H -0.723, G -0.622, Q -0.685, T -0.552, D 0.165, P -0.512, A -0.754, E -0.822, R -0.684, Y -0.831
F38: W -0.235, M -0.637, T -0.722, C -0.675, R 0.11, K 0.132, S -0.809, Y -0.509, L -0.284
